From patent publication US20220185901A1 (Bayer, published 2022)

Key:
[1] = target: T1, BMPR-2-FcHis6 (TPP-11725) (human); test: SPR, Biacore T200, antigen amine-coupled to the chip, antibody injected at 1.56-200 nM, 1:1 Langmuir fit, 25 C
T1 construct: also called human BMPR-2
Method: (§1) SPR experiments for quantitative binding analyses were performed using a Biacore T200 instrument (GE Healthcare Biacore, Inc.) equipped with Series S Sensor Chips CMS (GE Healthcare Biacore, Inc.). Binding assays were carried out at 25° C. with assay buffer HBS-EP+ (10 mM HEPES pH 7.4, 150 mM NaCl, 3 mM EDTA, 0.05% Surfactant P20). Antigens were covalently immobilized to the chip surface via amine coupling chemistry. The same proteins that had previously been used to isolate the antibodies of the invention during panning and screening [murine ALK-1-Fc SEQ ID NO: 114, human ALK-1-Fc SEQ ID NO: 116, as well as BMPR-2-Fc SEQ ID NO: 115 (human and murine extracellular are identical)] were used here as […] to determine KD values. Reagents for amine coupling (1-ethyl-3-(3-dimethylaminopropyl) carbodiimide hydrochloride (EDC), N-hydroxysuccinimide (NHS), ethanolamine-HCl pH 8.5) were used from the Amine Coupling Kit (GE Healthcare, product code BR-1000-50). The sensor chip surface was activated with a freshly prepared solution of 0.2 M EDC and 0.05 M NHS passed over the chip surface for 420 seconds at a flow rate of 10 μl/min, followed by an injection of antigen (dissolved to 0.5 μg/ml in immobilization buffer, 10 mM sodium acetate pH 5.0) with a target level of 50 RU. Excess of activated groups were blocked with a 1 molar solution of ethanolamine injected at a flow rate of 10 μl/min for 420 seconds.
(§2) The sensor surface was regenerated for 20 seconds with regeneration solution (glycine-HCl pH 1.5) after each assay cycle consisting of a single analyte injection.
(§3) Obtained sensorgrams were double-referenced, (reference cell correction followed by buffer sample subtraction). KD values were calculated based on the ratio of dissociation (kd) and association (kₐ) rate constants which were obtained by globally fitting sensorgrams with a first order 1:1 Langmuir binding model, implemented in the Biacore Evaluation Software Package (Biacore T200 Evaluation Software Version 2.0, GE Healthcare Biacore, Inc.).

[2] = target: T2, human ALK-1-Fc (TPP-11726) (human); test: as above
T2 construct: Used for panning, screening and SPR; also called hALK-1-Fc
T2 sequence (chain, as listed by the source limits assumed): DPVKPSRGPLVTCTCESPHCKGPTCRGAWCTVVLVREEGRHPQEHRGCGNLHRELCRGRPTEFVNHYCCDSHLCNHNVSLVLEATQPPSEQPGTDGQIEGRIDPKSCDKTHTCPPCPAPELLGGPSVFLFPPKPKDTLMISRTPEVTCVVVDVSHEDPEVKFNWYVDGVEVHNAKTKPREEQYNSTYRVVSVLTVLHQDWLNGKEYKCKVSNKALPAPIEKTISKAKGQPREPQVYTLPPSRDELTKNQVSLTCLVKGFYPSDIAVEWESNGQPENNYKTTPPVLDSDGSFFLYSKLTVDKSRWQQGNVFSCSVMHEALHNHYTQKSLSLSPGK
Method: as §1, §2, §3

[3] = target: T3, murine ALK-1-Fc (TPP-11724) (murine); test: as above
T3 construct: also called mouse ALK-1
T3 sequence (chain, as listed by the source limits assumed): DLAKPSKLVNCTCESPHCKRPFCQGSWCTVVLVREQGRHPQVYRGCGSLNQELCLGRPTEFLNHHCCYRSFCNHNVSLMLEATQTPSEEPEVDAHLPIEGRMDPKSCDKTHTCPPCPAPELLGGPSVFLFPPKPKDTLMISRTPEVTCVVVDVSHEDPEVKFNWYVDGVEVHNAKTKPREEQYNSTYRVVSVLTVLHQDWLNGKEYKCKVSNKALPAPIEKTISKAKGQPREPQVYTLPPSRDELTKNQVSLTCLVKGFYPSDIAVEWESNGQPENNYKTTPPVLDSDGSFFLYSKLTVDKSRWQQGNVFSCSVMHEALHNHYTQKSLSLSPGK
Method: as §1, §2, §3

[4] = target: ALK-1/BMPR-2 receptor pair on PathHunter U2OS ALK-1/BMPR-2 dimerization cells (DiscoverX 93-0962C3) (UniProt P37023 22-503; Q13873 27-1038); test: cell-based or functional assay
ALK-1/BMPR-2 receptor pair on PathHunter U2OS ALK-1/BMPR-2 dimerization cells (DiscoverX 93-0962C3), sequence (P37023 22-503, chain 1 of 2): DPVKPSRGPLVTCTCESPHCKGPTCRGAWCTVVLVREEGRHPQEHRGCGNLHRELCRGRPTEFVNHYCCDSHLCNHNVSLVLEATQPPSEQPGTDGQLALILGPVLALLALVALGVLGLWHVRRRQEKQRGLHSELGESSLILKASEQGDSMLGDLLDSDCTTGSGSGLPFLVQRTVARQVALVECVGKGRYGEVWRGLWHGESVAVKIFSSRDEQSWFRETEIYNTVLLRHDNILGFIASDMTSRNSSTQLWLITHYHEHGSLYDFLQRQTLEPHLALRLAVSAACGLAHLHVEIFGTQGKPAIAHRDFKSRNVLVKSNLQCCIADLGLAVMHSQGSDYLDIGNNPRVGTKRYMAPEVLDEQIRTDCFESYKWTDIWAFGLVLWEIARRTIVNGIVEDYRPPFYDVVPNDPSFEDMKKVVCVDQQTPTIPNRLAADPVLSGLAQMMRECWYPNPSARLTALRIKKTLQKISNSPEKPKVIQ
ALK-1/BMPR-2 receptor pair on PathHunter U2OS ALK-1/BMPR-2 dimerization cells (DiscoverX 93-0962C3), sequence (Q13873 27-1038, chain 2 of 2): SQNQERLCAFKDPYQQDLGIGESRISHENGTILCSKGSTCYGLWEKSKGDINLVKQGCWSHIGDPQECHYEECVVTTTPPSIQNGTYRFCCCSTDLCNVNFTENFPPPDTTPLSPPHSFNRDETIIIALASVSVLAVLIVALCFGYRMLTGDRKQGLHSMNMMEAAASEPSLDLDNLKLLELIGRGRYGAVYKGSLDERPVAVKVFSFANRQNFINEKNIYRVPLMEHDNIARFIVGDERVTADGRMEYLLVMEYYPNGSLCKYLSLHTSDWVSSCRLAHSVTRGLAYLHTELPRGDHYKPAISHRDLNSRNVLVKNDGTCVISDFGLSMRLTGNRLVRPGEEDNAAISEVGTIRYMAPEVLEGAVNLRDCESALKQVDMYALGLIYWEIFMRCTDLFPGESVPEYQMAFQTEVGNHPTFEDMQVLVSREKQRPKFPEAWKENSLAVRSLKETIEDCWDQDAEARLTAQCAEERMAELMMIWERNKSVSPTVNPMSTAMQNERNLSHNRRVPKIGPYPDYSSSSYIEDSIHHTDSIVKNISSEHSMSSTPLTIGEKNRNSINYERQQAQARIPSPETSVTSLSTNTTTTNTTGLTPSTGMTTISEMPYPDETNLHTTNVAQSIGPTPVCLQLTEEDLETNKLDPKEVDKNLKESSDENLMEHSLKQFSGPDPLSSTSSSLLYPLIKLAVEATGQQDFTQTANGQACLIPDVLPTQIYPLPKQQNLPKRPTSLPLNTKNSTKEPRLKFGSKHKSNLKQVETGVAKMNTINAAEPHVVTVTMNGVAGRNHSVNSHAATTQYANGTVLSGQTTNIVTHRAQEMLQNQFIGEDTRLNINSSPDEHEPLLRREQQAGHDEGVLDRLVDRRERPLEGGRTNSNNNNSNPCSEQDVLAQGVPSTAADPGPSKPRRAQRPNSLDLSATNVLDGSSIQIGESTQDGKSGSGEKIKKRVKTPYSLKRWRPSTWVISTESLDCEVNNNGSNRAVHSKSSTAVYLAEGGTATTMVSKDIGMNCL

[5] = target: T2, human ALK-1-Fc (TPP-11726); test: ELISA: human ALK-1-Fc coated at 2 µg/ml, TPP-14696 titrated, detected with anti-human IgG2 (Fc specific) then anti-mouse IgG-HRP; readout Relative Fluorescence Units
Method: (§4) Antigens human ALK-1-Fc and human ALK-2-Fc were coated at 2 μg/ml and binding of TPP-14696 and TPP-14719 was detected by anti-human IgG2 (Fc specific) antibody (Sigma 19513) followed by anti-mouse IgG (whole molecule)—HRP (Sigma A9044, 1:40000).
(§5) In order to determine the selectivity for the ALK-1/BMPR-2 receptor complex compared to the ALK-2/BMPR-2 receptor, the specificity of the agonistic antibodies has been evaluated by ELISA (FIG. 9). The antigens human ALK-1-Fc and human ALK-2-Fc were coated at 2 μg/ml and binding of TPP-14696 and TPP-14719 was detected by anti-human IgG2 (Fc specific) antibody (Sigma 19513) followed by anti-mouse IgG (whole molecule)—HRP (Sigma A9044, 1:40000).

[6] = target: T4, hActivin RIA/ALK-2 Fc Chimera (TPP-17233) (human, UniProt Q04771 23-123); test: ELISA: human ALK-2-Fc coated at 2 µg/ml, TPP-14696 titrated, detected with anti-human IgG2 (Fc specific) then anti-mouse IgG-HRP; readout Relative Fluorescence Units
T4 construct: also called human ALK-2-Fc
T4 sequence: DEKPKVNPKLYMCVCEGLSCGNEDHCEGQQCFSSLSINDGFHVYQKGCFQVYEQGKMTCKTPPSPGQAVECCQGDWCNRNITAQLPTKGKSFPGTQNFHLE
Method: as §4, §5

T1 sequence (chain, as listed by the source limits assumed): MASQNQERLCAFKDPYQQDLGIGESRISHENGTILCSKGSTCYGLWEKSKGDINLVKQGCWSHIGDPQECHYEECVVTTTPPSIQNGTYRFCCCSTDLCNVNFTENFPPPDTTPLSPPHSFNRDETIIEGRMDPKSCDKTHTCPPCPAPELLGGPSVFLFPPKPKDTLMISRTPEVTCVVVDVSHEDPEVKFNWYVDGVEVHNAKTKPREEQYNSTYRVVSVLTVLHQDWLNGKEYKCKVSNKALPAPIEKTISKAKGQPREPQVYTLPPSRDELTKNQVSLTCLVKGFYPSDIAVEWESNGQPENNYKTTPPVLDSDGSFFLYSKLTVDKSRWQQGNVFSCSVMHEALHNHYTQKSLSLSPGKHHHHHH

Binder	Kd [1] [nM]	Kd [2] [nM]	Kd [3] [nM]	further results
TPP-13469 (484A-M010-C06-scFv-Fc-hIgG2) (Fc fusion, Monospecific antibody (MsAB) against BMPR-2; the construct name says scFv-Fc-hIgG2; not shown: human IgG2 Fc (and any linker), implied by the construct name scFv-Fc-hIgG2) EVQLLESGGGLVQPGGSLRLSCAASGFTFSDYYMTWIRQAPGKGLEWVSSISGGSTYYADSRKGRFTISRDNSENTLYLQMNSLRAEDTAVYYCARDFGVAGWFGQYGMDVWGQGTLVTVSSGGGGSGGGGSGGGGSQSVLTQPPSASGTPGQRVTISCTGSSSNIGAGYDVHWYQQLPGTAPKLLIYRSNQRPSGVPDRFSGSKSGTSASLAISGLRSEDEADYYCSSYAGNYNLVFGGGTKLTVLGGGGSGGGGSGGGGSGVECPPCPAPPVAGPSVFLFPPKPKDTLMISRTPEVTCVVVDVSHEDPEVQFNWYVDGVEVHNAKTKPREEQFNSTFRVVSVLTVVHQDWLNGKEYKCKVSNKGLPAPIEKTISKTKGQPREPQVYTLPPSREEMTKNQVSLTCLVKGFYPSDIAVEWESNGQPENNYKTTPPMLDSDGSFFLYSKLTVDKSRWQQGNVFSCSVMHEALHNHYTQKSLSLSPG	6.2			
TPP-13660 (484A-M232-A14-scFv-Fc-hIgG2) (Fc fusion, Monospecific antibody (MsAB) against ALK-1; the construct name says scFv-Fc-hIgG2; not shown: human IgG2 Fc (and any linker), implied by the construct name scFv-Fc-hIgG2) EVQLLESGGGLVQPGGSLRLSCAASGFTFSSYAMSWVRQAPGKGLEWVANINQDGSEKNYVDSMRGRFTISRDNSKNTLYLQMNSLRAEDTAVYYCAREFDYWGQGTLVTVTSSGGGGSGGGGSGGGGSQSVLAQPPSASGTPGQRVTISCSGSSSNIGSNYVYWYQQLPGTAPKLLIYGNNKRPSGVPDRFSGSKSGTSASLAISGLRSEDEADYYCAAWDDSLNGRVFGGGTKLTVLGGGGSGGGGSGGGGSGVECPPCPAPPVAGPSVFLFPPKPKDTLMISRTPEVTCVVVDVSHEDPEVQFNWYVDGVEVHNAKTKPREEQFNSTFRVVSVLTVVHQDWLNGKEYKCKVSNKGLPAPIEKTISKTKGQPREPQVYTLPPSREEMTKNQVSLTCLVKGFYPSDIAVEWESNGQPENNYKTTPPMLDSDGSFFLYSKLTVDKSRWQQGNVFSCSVMHEALHNHYTQKSLSLSPG		8.5	25	
TPP-14696 (13654-13667-scFv-kih-IgG2_Fc) (bispecific antibody, scFv-Fc (kih) heterodimer with IgG2 Fc; also called TPP-14669 (as printed in some places); BsAB TPP-14696) chain 1: EVQLLESGGGLVQPGGSLRLSCAASGFTFSIYAMSWVRQAPGKGLEWVSAISGSGGSTYYADSVKGRFTISRDNSKNTLYLQMNSLRAEDTAVYYCARDFDYWGQGTLVTVTSSGGGGSGGGGSGGGGSQSVLTQPPSASGTPGQRVTISCSGSSSNIGSNYVYWYQQLPGTAPKLLIYGNINRPSGVPDRFSGSKSGTSASLAISGLRSEDEADYYCAAWDDSLNGRVFGGGTKLTVLGGGGSGGGGSGGGGSGVECPPCPAPPVAGPSVFLFPPKPKDTLMISRTPEVTCVVVDVSHEDPEVQFNWYVDGVEVHNAKTKPREEQFNSTFRVVSVLTVVHQDWLNGKEYKCKVSNKGLPAPIEKTISKTKGQPREPQVYTLPPCREEMTKNQVSLWCLVKGFYPSDIAVEWESNGQPENNYKTTPPMLDSDGSFFLYSKLTVDKSRWQQGNVFSCSVMHEALHNHYTQKSLSLSPG chain 2: EVQLLESGGGLVQPGGSLRLSCAASGFTFSNAWMNWVRQAPGKGLEWVSSISSSSSYIYYADSVKGRFTISRDNSKNTLYLQMNSLRAEDTAVYYCARAVAAGGMFWGLDQWGQGTLVTVTSSGGGGSGGGGSGGGGSQSVLTQPPSASGTPGQRVTISCSGSRSNIGSNSVHWYQQLPGTAPKLLIYGNSNRPSGVPDRFSGSKSGTSASLAISGLRSEDEADYYCQSYDSSLNDHVVFGGGTKLTVLGGGGSGGGGSGGGGSGVECPPCPAPPVAGPSVFLFPPKPKDTLMISRTPEVTCVVVDVSHEDPEVQFNWYVDGVEVHNAKTKPREEQFNSTFRVVSVLTVVHQDWLNGKEYKCKVSNKGLPAPIEKTISKTKGQPREPQVCTLPPSREEMTKNQVSLSCAVKGFYPSDIAVEWESNGQPENNYKTTPPMLDSDGSFFLVSKLTVDKSRWQQGNVFSCSVMHEALHNHYTQKSLSLSPG				Agonistic activity in PathHunter U2OS cells EC50 [4]: 6.3 nM; EC50 [5]: 1.01 nM; binding result [6]: no binding
TPP-13654 (484A-M233-M07-scFv-Fc-hIgG2) (Fc fusion, Monospecific antibody (MsAB) against ALK-1; the construct name says scFv-Fc-hIgG2; not shown: human IgG2 Fc (and any linker), implied by the construct name scFv-Fc-hIgG2) EVQLLESGGGLVQPGGSLRLSCAASGFTFSIYAMSWVRQAPGKGLEWVSAISGSGGSTYYADSVKGRFTISRDNSKNTLYLQMNSLRAEDTAVYYCARDFDYWGQGTLVTVTSSGGGGSGGGGSGGGGSQSVLTQPPSASGTPGQRVTISCSGSSSNIGSNYVYWYQQLPGTAPKLLIYGNINRPSGVPDRFSGSKSGTSASLAISGLRSEDEADYYCAAWDDSLNGRVFGGGTKLTVLGGGGSGGGGSGGGGSGVECPPCPAPPVAGPSVFLFPPKPKDTLMISRTPEVTCVVVDVSHEDPEVQFNWYVDGVEVHNAKTKPREEQFNSTFRVVSVLTVVHQDWLNGKEYKCKVSNKGLPAPIEKTISKTKGQPREPQVYTLPPSREEMTKNQVSLTCLVKGFYPSDIAVEWESNGQPENNYKTTPPMLDSDGSFFLYSKLTVDKSRWQQGNVFSCSVMHEALHNHYTQKSLSLSPG		8.6	25	
TPP-13667 (484A-M198-J22-scFv-Fc-hIgG2) (Fc fusion, Monospecific antibody (MsAB) against BMPR-2; the first row says hIgG2; not shown: human IgG2 Fc (and any linker), implied by the construct name scFv-Fc-hIgG2) EVQLLESGGGLVQPGGSLRLSCAASGFTFSNAWMNWVRQAPGKGLEWVSSISSSSSYIYYADSVKGRFTISRDNSKNTLYLQMNSLRAEDTAVYYCARAVAAGGMFWGLDQWGQGTLVTVTSSGGGGSGGGGSGGGGSQSVLTQPPSASGTPGQRVTISCSGSRSNIGSNSVHWYQQLPGTAPKLLIYGNSNRPSGVPDRFSGSKSGTSASLAISGLRSEDEADYYCQSYDSSLNDHVVFGGGTKLTVLGGGGSGGGGSGGGGSGVECPPCPAPPVAGPSVFLFPPKPKDTLMISRTPEVTCVVVDVSHEDPEVQFNWYVDGVEVHNAKTKPREEQFNSTFRVVSVLTVVHQDWLNGKEYKCKVSNKGLPAPIEKTISKTKGQPREPQVYTLPPSREEMTKNQVSLTCLVKGFYPSDIAVEWESNGQPENNYKTTPPMLDSDGSFFLYSKLTVDKSRWQQGNVFSCSVMHEALHNHYTQKSLSLSPG	8.8			
